Reference: PMC3324987 (Frontiers in Molecular Neuroscience, 2012)

Key:
apo-CaBP1 = assay: ITC and HSQC of NSCaTE binding to apo-CaBP1; parameters: species or system human; conditions: ITC and NMR, compared to Ca^2+-CaBP1
[1] = target: N-lobe of calmodulin (residues 1-77) (UniProt P0DP23 2-78); assay: other fluorescence titration
[2] = target: C-lobe of calmodulin (residues 78-148) (UniProt P0DP23 79-149); assay: other fluorescence titration

“long NSCaTE peptide: biosynthetically produced N-terminal region of Cav1.2 (residues 1–68), expressed in E. coli” was tested, and the “binding to apo-CaBP1” value (apo-CaBP1) was “extremely weak”.

B1: long NSCaTE peptide, Cav1.2 N-terminal cytoplasmic region residues 1-68 (domain or fragment)
chain: MVNENTRMYIPEENHQGSNYGSPRPAHANMNANAAAGLAPEHIPTPGAALSWQAAIDAARQAKLMGSA
B1 showed a Ka [1] of 1.39e+06 M⁻¹ and a Ka [2] of 232000 M⁻¹.
